Laboratory results from the supplement of paper PMC9116672.
± gives the standard deviation of the averaged measurements or the uncertainty stated by the source.

Columns and labels:
[1] = duplex melting temperature (HRM, EvaGreen); higher = more stable duplex
Experimental: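 Listed DNA strand annealed 1:1 with its complementary strand (95 °C 5 min, 0.1 °C/s to 20 °C). Melted in 1x NNE buffer (500 mM NaCl, 10 mM Na2HPO4, 1 mM EDTA, pH 7.0) with 1x EvaGreen on a LightCycler96 (37 to 97 °C, 0.1 °C/s). Tm is the peak of -dF/dT at the stated total duplex concentration; 4 replicates are averaged. PS oligos are non-stereospecific (Rp/Sp mixtures).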

[2] = duplex formation free energy ΔG50 (Van't Hoff fit of HRM Tm); higher = less stable duplex; conditions: temperature for dG: 50 °C, NaCl: 500 mM (unadjusted)
Experimental: (§1)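 Duplex of the listed DNA strand with its complement, in 1x NNE buffer (500 mM NaCl, pH 7.0) with 1x EvaGreen. ΔH and ΔS come from a Van't Hoff linear fit of 1/Tm against ln(CT/4) over 1-20 uM, using HRM Tm values.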

[3] = duplex formation enthalpy ΔH (Van't Hoff fit of HRM Tm); higher = less exothermic duplex formation; conditions: temperature for dG: 50 °C, NaCl: 500 mM (unadjusted)
Experimental: as §1

[4] = duplex formation entropy ΔS (Van't Hoff fit of HRM Tm); higher = smaller entropy loss on duplex formation; conditions: temperature for dG: 50 °C, NaCl: 500 mM (unadjusted)
Experimental: as §1

[5] = duplex concentration 1 µM, backbone: PO-PO (both strands phosphodiester DNA)
[6] = duplex concentration 1 µM, backbone: PS-PO (listed strand fully phosphorothioate, complement phosphodiester)
[7] = duplex concentration 1 µM, backbone: PS-PS (both strands fully phosphorothioate)
[8] = duplex concentration 2.5 µM, backbone: PO-PO (both strands phosphodiester DNA)
[9] = duplex concentration 2.5 µM, backbone: PS-PO (listed strand fully phosphorothioate, complement phosphodiester)
[10] = duplex concentration 2.5 µM, backbone: PS-PS (both strands fully phosphorothioate)
[11] = duplex concentration 5 µM, backbone: PO-PO (both strands phosphodiester DNA)
[12] = duplex concentration 5 µM, backbone: PS-PO (listed strand fully phosphorothioate, complement phosphodiester)
[13] = duplex concentration 5 µM, backbone: PS-PS (both strands fully phosphorothioate)
[14] = duplex concentration 7.5 µM, backbone: PO-PO (both strands phosphodiester DNA)
[15] = duplex concentration 7.5 µM, backbone: PS-PO (listed strand fully phosphorothioate, complement phosphodiester)
[16] = duplex concentration 7.5 µM, backbone: PS-PS (both strands fully phosphorothioate)
[17] = duplex concentration 10 µM, backbone: PO-PO (both strands phosphodiester DNA)
[18] = duplex concentration 10 µM, backbone: PS-PO (listed strand fully phosphorothioate, complement phosphodiester)
[19] = duplex concentration 10 µM, backbone: PS-PS (both strands fully phosphorothioate)
[20] = duplex concentration 15 µM, backbone: PO-PO (both strands phosphodiester DNA)
[21] = duplex concentration 15 µM, backbone: PS-PO (listed strand fully phosphorothioate, complement phosphodiester)
[22] = duplex concentration 15 µM, backbone: PS-PS (both strands fully phosphorothioate)
[23] = duplex concentration 20 µM, backbone: PO-PO (both strands phosphodiester DNA)
[24] = duplex concentration 20 µM, backbone: PS-PO (listed strand fully phosphorothioate, complement phosphodiester)
[25] = duplex concentration 20 µM, backbone: PS-PS (both strands fully phosphorothioate)
[26] = backbone: PO-PO (both strands phosphodiester DNA)
[27] = backbone: PS-PO (listed strand fully phosphorothioate, complement phosphodiester)
[28] = backbone: PS-PS (both strands fully phosphorothioate)

Sequence	duplex melting temperature [1, 5]	duplex melting temperature [1, 6]	duplex melting temperature [1, 7]	duplex melting temperature [1, 8]	duplex melting temperature [1, 9]	duplex melting temperature [1, 10]	duplex melting temperature [1, 11]	duplex melting temperature [1, 12]	duplex melting temperature [1, 13]	duplex melting temperature [1, 14]	duplex melting temperature [1, 15]	duplex melting temperature [1, 16]	duplex melting temperature [1, 17]	duplex melting temperature [1, 18]	duplex melting temperature [1, 19]	duplex melting temperature [1, 20]	duplex melting temperature [1, 21]	duplex melting temperature [1, 22]	duplex melting temperature [1, 23]	duplex melting temperature [1, 24]	duplex melting temperature [1, 25]	duplex formation free energy ΔG50 [2, 26]	duplex formation free energy ΔG50 [2, 27]	duplex formation free energy ΔG50 [2, 28]	duplex formation enthalpy ΔH [3, 26]	duplex formation enthalpy ΔH [3, 27]	duplex formation enthalpy ΔH [3, 28]	duplex formation entropy ΔS [4, 26]	duplex formation entropy ΔS [4, 27]	duplex formation entropy ΔS [4, 28]
GCTGAACTAACCACCA	62.4 ± 1.2 °C	55.12 ± 0.072 °C	47.5 ± 0.78 °C	65.29 ± 0.31 °C	57.81 ± 0.12 °C	50.39 ± 0.32 °C	67.03 ± 0.25 °C	60.12 ± 0.057 °C	52.54 ± 0.26 °C	68.36 ± 0.31 °C	61.33 ± 0.085 °C	53.74 ± 0.18 °C	69.23 ± 0.2 °C	62.13 ± 0.097 °C	54.62 ± 0.096 °C	70.53 ± 0.31 °C	63.33 ± 0.14 °C	55.67 ± 0.093 °C	71.61 ± 0.45 °C	64.15 ± 0.058 °C	56.62 ± 0.25 °C	-53 ± 0.753 kJ/mol	-45.68 ± 0.188 kJ/mol	-38.71 ± 0.126 kJ/mol	-325 ± 13.8 kJ/mol	-305 ± 5.44 kJ/mol	-293 ± 9.62 kJ/mol	-201 ± 9.6 cal/mol/K	-192 ± 3.9 cal/mol/K	-188 ± 7 cal/mol/K
CTGTAAGGCGATATGTT	62.12 ± 0.3 °C	54.19 ± 0.32 °C	46.56 ± 0.46 °C	64 ± 0.26 °C	57.45 ± 0.17 °C	49.35 ± 0.22 °C	66.38 ± 0.2 °C	59.646 ± 0.025 °C	51.33 ± 0.25 °C	67.39 ± 0.14 °C	60.55 ± 0.14 °C	52.31 ± 0.059 °C	68.42 ± 0.14 °C	61.364 ± 0.05 °C	53.15 ± 0.1 °C	69.61 ± 0.1 °C	62.62 ± 0.11 °C	54.29 ± 0.068 °C	70.55 ± 0.11 °C	63.366 ± 0.049 °C	55.12 ± 0.067 °C	-52.1 ± 0.544 kJ/mol	-45.03 ± 0.322 kJ/mol	-37.65 ± 0.0628 kJ/mol	-325 ± 10.5 kJ/mol	-304 ± 10.5 kJ/mol	-309 ± 6.28 kJ/mol	-202 ± 7.4 cal/mol/K	-192 ± 7.4 cal/mol/K	-201 ± 4.6 cal/mol/K
TTTGGGTTAGTAAGAAGGCAGCAGTTGGGC	80.77 ± 0.16 °C	73.49 ± 0.58 °C	64.9 ± 0.6 °C	81.98 ± 0.11 °C	74.54 ± 0.53 °C	66.58 ± 0.4 °C	82.782 ± 0.065 °C	75.49 ± 0.43 °C	67.7 ± 0.32 °C	83.39 ± 0.22 °C	76.34 ± 0.31 °C	68.34 ± 0.25 °C	83.787 ± 0.08 °C	76.74 ± 0.24 °C	68.92 ± 0.12 °C	84.24 ± 0.16 °C	77.38 ± 0.2 °C	69.54 ± 0.097 °C	85 °C	77.939 ± 0.056 °C	70.01 ± 0.096 °C	-111 ± 3.05 kJ/mol	-86.7 ± 2.26 kJ/mol	-66.45 ± 0.586 kJ/mol	-810 ± 33.1 kJ/mol	-680 ± 30.5 kJ/mol	-576 ± 11.3 kJ/mol	-517 ± 22 cal/mol/K	-439 ± 21 cal/mol/K	-377 ± 7.9 cal/mol/K
CGCGCGAGTATTTATAACCT	71.21 ± 0.27 °C	–	52.47 ± 0.24 °C	72.26 ± 0.47 °C	64.1 ± 0.75 °C	55.09 ± 0.4 °C	73.44 ± 0.43 °C	65.57 ± 0.61 °C	56.95 ± 0.38 °C	74.53 ± 0.18 °C	66.38 ± 0.52 °C	57.68 ± 0.13 °C	75.09 ± 0.087 °C	67.07 ± 0.32 °C	58.33 ± 0.069 °C	75.71 ± 0.17 °C	67.9 ± 0.21 °C	–	–	68.39 ± 0.14 °C	–	-76.2 ± 2.89 kJ/mol	-57.1 ± 0.837 kJ/mol	-43.8 ± 0.502 kJ/mol	-579 ± 41.8 kJ/mol	-449 ± 16.7 kJ/mol	-360 ± 26.4 kJ/mol	-372 ± 29 cal/mol/K	-290 ± 12 cal/mol/K	-234 ± 19 cal/mol/K
